Usually stoichiometry N stands for the number of molecules, sites or subunits per partner or assembly.

Where “and” joins values, the source holds several entries; their conditions need not be identical. Identical values can stand only once.

The source of these data is paper PMC11156904, “Nucleic acid mediated activation of a short prokaryotic Argonaute immune system”.

For data set [1], the target named is SPARTA heterodimer (TIR-APAZ/short pAgo complex) from Crenotalea thermophila (Crenotalea thermophila). The data set is described as follows: mass photometry; CrtSPARTA incubated with gRNA/tDNA (5 mM MgCl2, 55 °C, 12 hours), 100-fold diluted, in 20 mM HEPES pH 7.5, 100 mM KCl, 2 mM DTT.
The target is the same in data set [2]. Description: cryo-EM structure; SPARTA oligomer bound to gRNA/tDNA, nominal 3.15-3.35 Å.
The target of data set [3] is T1, CrtSPARTA TIR-APAZ;CrtSPARTA short pAgo loop10-9 deletion (Crenotalea thermophila;Crenotalea …, UniProt A0A1I7NFG5;A0A1I7NFD7 1-450;1-507, |del322-327).
T1 sequence 1: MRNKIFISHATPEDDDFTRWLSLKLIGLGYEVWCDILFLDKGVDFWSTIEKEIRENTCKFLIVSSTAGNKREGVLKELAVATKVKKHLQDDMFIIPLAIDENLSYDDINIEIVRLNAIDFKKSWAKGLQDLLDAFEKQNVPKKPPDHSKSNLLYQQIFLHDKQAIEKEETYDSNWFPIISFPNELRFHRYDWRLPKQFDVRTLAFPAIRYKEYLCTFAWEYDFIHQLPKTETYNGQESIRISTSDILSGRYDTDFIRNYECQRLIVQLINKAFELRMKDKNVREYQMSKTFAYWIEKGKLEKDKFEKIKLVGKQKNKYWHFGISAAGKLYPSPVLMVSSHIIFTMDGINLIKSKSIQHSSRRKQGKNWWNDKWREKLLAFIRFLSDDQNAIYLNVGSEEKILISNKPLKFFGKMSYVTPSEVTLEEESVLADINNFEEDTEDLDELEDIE
T1 sequence 2: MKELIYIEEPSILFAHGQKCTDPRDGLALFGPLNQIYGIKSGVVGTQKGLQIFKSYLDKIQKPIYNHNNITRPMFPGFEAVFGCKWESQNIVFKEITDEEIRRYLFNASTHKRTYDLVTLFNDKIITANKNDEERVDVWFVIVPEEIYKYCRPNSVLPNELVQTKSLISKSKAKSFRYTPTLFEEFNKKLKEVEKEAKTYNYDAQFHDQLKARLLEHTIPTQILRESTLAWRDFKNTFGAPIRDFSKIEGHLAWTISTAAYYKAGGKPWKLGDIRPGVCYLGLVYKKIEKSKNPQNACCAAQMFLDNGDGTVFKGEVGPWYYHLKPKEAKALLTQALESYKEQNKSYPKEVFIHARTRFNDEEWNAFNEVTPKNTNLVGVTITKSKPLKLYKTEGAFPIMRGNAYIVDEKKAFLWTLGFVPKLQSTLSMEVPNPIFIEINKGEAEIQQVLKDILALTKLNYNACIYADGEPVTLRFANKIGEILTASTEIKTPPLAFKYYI
The data set is described as follows: mass photometry; binds as single heterodimer (~134.6 kDa, expected 132.6); loses dimer formation; 20 mM HEPES pH 7.5, 100 mM KCl, 1 mM DTT, 5 mM MgCl2; 1.5 mg/ml SPARTA, 16 uM gRNA 37 C 1 h, then 16 uM tDNA 55 C 12 h. The following applies: protein: recombinant;recombinant; tags: 6xHis-MBP removed by TEV;none stated on this chain; copies: 1;1; 21 bp; tDNA 5' overhang 23 nt and 3' overhang 1 nt; guide loaded first, then target.

Data set [4] has as its target T2, CrtSPARTA TIR-APAZ;CrtSPARTA short pAgo (CrtAgo) (Crenotalea thermophila;Crenotalea …, UniProt A0A1I7NFG5;A0A1I7NFD7 1-450;1-507, |).
T2 sequence 1: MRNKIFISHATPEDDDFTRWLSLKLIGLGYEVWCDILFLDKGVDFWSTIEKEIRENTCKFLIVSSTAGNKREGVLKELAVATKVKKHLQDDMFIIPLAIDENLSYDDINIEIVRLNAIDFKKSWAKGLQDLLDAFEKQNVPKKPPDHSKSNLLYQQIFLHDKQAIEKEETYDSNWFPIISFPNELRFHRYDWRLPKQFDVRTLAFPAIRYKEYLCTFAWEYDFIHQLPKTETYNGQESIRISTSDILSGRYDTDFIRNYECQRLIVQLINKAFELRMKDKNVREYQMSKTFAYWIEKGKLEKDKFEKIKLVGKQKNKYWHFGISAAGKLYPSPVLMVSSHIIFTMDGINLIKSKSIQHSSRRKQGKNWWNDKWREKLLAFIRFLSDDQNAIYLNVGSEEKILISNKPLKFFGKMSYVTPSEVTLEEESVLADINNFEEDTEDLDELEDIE
T2 sequence 2: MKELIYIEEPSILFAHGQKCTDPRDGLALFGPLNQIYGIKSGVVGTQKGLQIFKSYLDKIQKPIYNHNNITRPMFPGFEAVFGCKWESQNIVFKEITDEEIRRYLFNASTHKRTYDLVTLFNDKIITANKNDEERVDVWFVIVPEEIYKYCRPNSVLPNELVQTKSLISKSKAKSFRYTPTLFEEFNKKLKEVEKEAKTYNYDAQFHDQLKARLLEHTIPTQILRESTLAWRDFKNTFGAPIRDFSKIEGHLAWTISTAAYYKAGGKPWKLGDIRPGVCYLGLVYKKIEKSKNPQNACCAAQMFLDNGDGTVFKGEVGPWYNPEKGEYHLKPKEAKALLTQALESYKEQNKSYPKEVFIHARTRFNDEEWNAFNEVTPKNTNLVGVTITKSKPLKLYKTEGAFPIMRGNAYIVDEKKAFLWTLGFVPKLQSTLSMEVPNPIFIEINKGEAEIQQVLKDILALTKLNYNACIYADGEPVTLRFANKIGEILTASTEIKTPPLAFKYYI
Description: cryo-EM structure; 5 mM MgCl2; Mg2+ seen in MID pocket; 4 heterodimers, one duplex each; 20 mM HEPES pH 7.5, 100 mM KCl, 1 mM DTT, 5 mM MgCl2; 1.5 mg/ml SPARTA, 16 uM gRNA 37 C 1 h, then 16 uM tDNA 55 C 12 h. The following applies: protein: recombinant;recombinant; tags: 6xHis-MBP removed by TEV;none stated on this chain; copies: 1;1; 21 bp; tDNA 5' overhang 23 nt and 3' overhang 1 nt; guide loaded first, then target.

As for “SPARTA heterodimer (TIR-APAZ/short pAgo complex) from Crenotalea thermophila”, the stoichiometry N is 2 and 4 in data set [1]; 4 in data set [2].

B1: gRNA/tDNA duplex (DNA:RNA)
RNA: UGAGGUAGUAGGUUGUAUAGU
DNA: AAACGACGGCCAGTGCCAAGCTTACTATACAACCTACTACCTCAT
modifications: 5'-phosphate on guide RNA
For the molecule B1, the binding result in data set [3] and in data set [4] was “binds” in each case.
